The target of assay [1] is Cx45CT WT (Lyn-HA-Cx45CT-mVenusN and Lyn-Myc-Cx45CT-mVenusC) (not stated (human or mouse cDNA cloned)). In words: split reporter.
In assay [2] the target is Cx45 6E (stably expressed in MDCK cells) (not stated (human or mouse cDNA cloned)) (UniProt P28229). Kind of assay: co-IP.
The next assay addresses Cx45 CT (UniProt P36383). The following applies: cited from earlier work.

This is an account of results in PMC5600700.

Chain of UniProt P28229 (P28229 whole entry L335E/L338E/L349E/I353E/Y356E): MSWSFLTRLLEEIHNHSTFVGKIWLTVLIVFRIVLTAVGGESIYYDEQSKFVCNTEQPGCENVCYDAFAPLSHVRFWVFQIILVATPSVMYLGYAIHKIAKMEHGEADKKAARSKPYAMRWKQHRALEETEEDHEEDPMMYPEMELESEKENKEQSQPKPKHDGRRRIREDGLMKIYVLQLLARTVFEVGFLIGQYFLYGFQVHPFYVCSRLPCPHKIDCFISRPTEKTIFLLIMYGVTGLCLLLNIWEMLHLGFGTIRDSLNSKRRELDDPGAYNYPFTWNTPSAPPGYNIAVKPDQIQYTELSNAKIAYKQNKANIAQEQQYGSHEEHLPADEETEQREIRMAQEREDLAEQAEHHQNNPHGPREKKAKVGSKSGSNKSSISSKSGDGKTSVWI
Chain of Cx45 CT (P36383 265-396): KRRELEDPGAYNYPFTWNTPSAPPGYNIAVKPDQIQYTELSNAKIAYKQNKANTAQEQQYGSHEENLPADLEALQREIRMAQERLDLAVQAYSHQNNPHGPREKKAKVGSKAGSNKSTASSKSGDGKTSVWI

“Cx45CT WT (Lyn-HA-Cx45CT-mVenusN and Lyn-Myc-Cx45CT-mVenusC) (domain or fragment)” displayed a fold mVenus signal at the plasma membrane (normalized to Myc) over Cx45CT 6E in assay [1] of 2.5 fold. In assay [2], “developmentally regulated brain protein (Drebrin) (natural protein)” gave a fold increase of the co-immunoprecipitated amount relative to Cx45 WT of 2 fold. Regarding β-tubulin (natural protein), in assay [2], the fold decrease of the co-immunoprecipitated amount relative to Cx45 WT is 3 fold. On to “neural precursor cell expressed developmentally down-regulated protein 4 (Nedd4) (enzyme)”, for which, in assay [2], the fold decrease of the co-immunoprecipitated amount relative to Cx45 WT is 2 fold. In the case of Cx45 CT (from UniProt P36383), the Kd (usually the free concentration of one partner at which half of the binding sites on the other are occupied at equilibrium, for simple one-to-one binding) with Cx45 CT was 100 nM.
